We go through two molecules from patent publication US20200262910A1 (SINGAPORE HEALTH SERVICES PTE, published 2020).

Assay [1] addresses T1, Mouse IL11RA (50075-M08H, SinoBiological); mouse interleukin 11 receptor alpha chain 1 (mouse, UniProt Q64385 24-367).
T1 construct: also called mIL11RA1; IL11RA1
T1 sequence (looked up): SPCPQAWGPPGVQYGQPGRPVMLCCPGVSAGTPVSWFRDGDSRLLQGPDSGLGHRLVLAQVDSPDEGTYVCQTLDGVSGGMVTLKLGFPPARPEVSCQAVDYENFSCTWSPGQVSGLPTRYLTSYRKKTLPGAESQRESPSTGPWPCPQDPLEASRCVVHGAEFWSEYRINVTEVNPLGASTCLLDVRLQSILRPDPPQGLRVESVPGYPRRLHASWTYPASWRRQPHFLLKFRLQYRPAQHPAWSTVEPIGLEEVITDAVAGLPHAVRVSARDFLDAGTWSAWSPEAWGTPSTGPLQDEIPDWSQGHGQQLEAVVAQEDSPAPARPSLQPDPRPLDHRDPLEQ
Put plainly: SPR (BIAcore T200, 25 C): rmIL11 immobilized on a CM5 chip, mouse IL11RA injected as analyte (3.125 to 100 nM), 1:1 Langmuir fit. As to the method:
(§1) SPR measurements were performed on a BIAcore T200 (GE Healthcare) at 25° C. Buffers were degassed and filter-sterilized through 0.2 μm filters prior to use. RhIL11 or rmIl11 was immobilized onto a carboxymethylated dextran (CM5) sensor chip using standard amine coupling chemistry. For kinetic analysis, a concentration series (3.125 nM to 100 nM) of human IL11RA or mouse Il11ra was injected over the rhIL11, rmIl11 and reference surfaces at a flow rate of 40 μl min⁻¹. All the analytes were dissolved in HBS-EP+ (BR100669, GE Healthcare) containing 1 mg ml⁻¹ BSA. The association and dissociation were measured for 150 s and 200 s respectively. After each analyte injection, the surface was regenerated by a 30 s injection of Glycine pH2.5, followed by a 5 min stabilisation period. All sensorgrams were aligned and double-referenced. Affinity and kinetic constants were determined by fitting the corrected sensorgrams with the 1:1 Langmuir model using BIAevaluation v3.0 software (GE Healthcare). The equilibrium binding constant KD was determined by the ratio of the binding rate constants kd/ka.

Assay [2] concerns the target T1, Mouse IL11RA (50075-M08H, …). Briefly: SPR (BIAcore T200), IL11 immobilized on CM5, receptor as analyte, 1:1 Langmuir fit; rmIL11 (mouse ligand) on mouse IL11RA1. On the procedure: as §1
For orientation: Surface plasmon resonance follows binding to a sensor surface in real time, without labels.

For assay [3] the target is unchanged. Put plainly: SPR (BIAcore T200): ligand mIL11 immobilized, analyte mIL11RA, 1:1 Langmuir fit. On the procedure: as §1
Assay [4] deals with T2, Human IL11RA (10252-H08H, SinoBiological) (human, UniProt Q14626 23-365).
T2 construct: also called hIL11RA
T2 sequence: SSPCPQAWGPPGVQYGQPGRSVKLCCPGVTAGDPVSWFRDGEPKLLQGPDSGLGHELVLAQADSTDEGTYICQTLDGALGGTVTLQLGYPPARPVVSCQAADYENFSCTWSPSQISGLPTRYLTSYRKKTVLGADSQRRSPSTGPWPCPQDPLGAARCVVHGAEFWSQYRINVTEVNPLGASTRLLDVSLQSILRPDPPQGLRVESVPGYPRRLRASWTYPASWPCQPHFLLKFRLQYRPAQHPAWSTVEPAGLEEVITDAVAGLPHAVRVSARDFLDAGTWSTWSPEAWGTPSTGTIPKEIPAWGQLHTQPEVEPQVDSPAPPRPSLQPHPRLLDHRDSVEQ
Briefly: SPR (BIAcore T200, 25 C): rhIL11 immobilized on a CM5 chip, human IL11RA injected as analyte (3.125 to 100 nM), 1:1 Langmuir fit. On the procedure:
as §1

In assay [5] the target is T1, Mouse IL11RA (50075-M08H, …). Put plainly: SPR (BIAcore T200, 25 C): rhIL11 immobilized on a CM5 chip, mouse IL11RA injected as analyte (3.125 to 100 nM), 1:1 Langmuir fit. As to the method: as §1
Assay [6] deals with T2, Human IL11RA (10252-H08H, …). Put plainly: SPR (BIAcore T200): ligand hIL11 immobilized, analyte hIL11RA, 1:1 Langmuir fit. As to the method: as §1
Assay [7] deals with T1, Mouse IL11RA (50075-M08H, …). Put plainly: SPR (BIAcore T200), IL11 immobilized on CM5, receptor as analyte, 1:1 Langmuir fit; rhIL11 (human ligand) on mouse IL11RA1. On the procedure:
as §1

Assay [8] has the same target. Briefly: SPR (BIAcore T200): ligand hIL11 immobilized, analyte mIL11RA, 1:1 Langmuir fit. On the procedure:
as §1

B1: Recombinant mouse IL11 (rmIL11, UniProtKB: P47873, Genscript) (ligand, UniProt P47873 22-199, looked up)
chain: PGPPAGSPRVSSDPRADLDSAVLLTRSLLADTRQLAAQMRDKFPADGDHSLDSLPTLAMSAGTLGSLQLPGVLTRLRVDLMSYLRHVQWLRRAGGPSLKTLEPELGALQARLERLLRRLQLLMSRLALPQAAPDQPVIPLGPPASAWGSIRAAHAILGGLHLTLDWAVRGLLLLKTRL
notes: Amine-coupled to a CM5 chip in SPR; also called biotinylated mouse Il11
In general, Kd refers to a measure of binding affinity in units of concentration. As usually defined, the koff is a measure of how fast the partners let go of each other. Low values mean a long-lived complex, high ones a short-lived complex. In general, kon refers to the rate constant with which the complex forms. The low end stands for slow association, the high end for fast association. The molecule B1 came in with a Kd in assay [1] of 94.1 nM. In assay [2], binding was put at a Kd of 94 nM. In assay [3], this molecule had a Kd of 94.1 nM, a koff of 0.0115 s⁻¹ and a kon of 122000 M⁻¹ s⁻¹.

B2: Recombinant human IL11 (rhIL11, UniProtKB:P20809, Genscript) (ligand)
chain: PGPPPGPPRVSPDPRAELDSTVLLTRSLLADTRQLAAQLRDKFPADGDHNLDSLPTLAMSAGALGALQLPGVLTRLRADLLSYLRHVQWLRRAGGSSLKTLEPELGTLQARLDRLLRRLQLLMSRLALPQPPPDPPAPPLAPPSSAWGGIRAAHAILGGLHLTLDWAVRGLLLLKTRL
notes: It was amine-coupled to a CM5 chip in SPR
As to B2, the Kd worked out at 45.3 nM in assay [4]; 72.3 nM in assay [5]; 45.3 nM in assay [6]; 72 nM in assay [7]; 72.3 nM in assay [8]. Further, the figures for the koff in assay [6] and in assay [8] were 0.0204 s⁻¹ and 0.012 s⁻¹, respectively. Moreover, the kon is 451000 M⁻¹ s⁻¹ in assay [6] and 166000 M⁻¹ s⁻¹ in assay [8].
